Measurements: doi:10.1101/737098
pKd: −log10 of the molar value.

Molecular target: wild-type KRAS4b GTPase domain (1-169), GMPPNP-bound (human) (UniProt P01116)
Test: ITC

pKd: 6.00
Substance: NF1-GRD (GAP-related domain of neurofibromin 1) (from UniProt P21359-2 1198-1530) (domain or fragment)
